Patent US20090155251A1 (published 2009)

Key:
[1] = target: T1, B4ECv3 (soluble EphB4 extracellular domain with C-terminal V5 epitope tag and 6xHis tag) (human, UniProt P54760 16-537); assay: biochemical assays: Ni-NTA bead binding of B2-AP; inhibition in solution and cell based
T1 construct: also called EphB4ECv3; GCF2 (v.3)
T1 sequence: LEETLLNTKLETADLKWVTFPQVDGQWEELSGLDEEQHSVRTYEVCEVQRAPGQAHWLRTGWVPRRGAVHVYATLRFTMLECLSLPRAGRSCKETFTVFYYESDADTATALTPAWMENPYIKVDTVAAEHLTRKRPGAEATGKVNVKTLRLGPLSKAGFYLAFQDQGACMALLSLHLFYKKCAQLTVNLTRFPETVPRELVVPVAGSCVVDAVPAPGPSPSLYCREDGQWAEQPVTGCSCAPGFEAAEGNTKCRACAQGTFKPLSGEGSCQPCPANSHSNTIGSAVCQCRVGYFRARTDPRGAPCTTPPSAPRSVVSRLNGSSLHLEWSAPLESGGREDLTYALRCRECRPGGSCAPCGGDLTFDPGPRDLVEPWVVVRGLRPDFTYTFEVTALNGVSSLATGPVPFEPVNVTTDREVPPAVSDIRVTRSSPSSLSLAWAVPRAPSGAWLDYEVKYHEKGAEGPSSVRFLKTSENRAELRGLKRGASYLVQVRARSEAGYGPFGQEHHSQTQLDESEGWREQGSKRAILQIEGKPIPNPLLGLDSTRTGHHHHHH
Protocol: 10 μl of Ni-NTA-Agarose were incubated in microcentrifuge tubes with 50 μl of indicated amount of B4ECv3 diluted in binding buffer BB (20 mM Tris-HCl, 0.15 M NaCl, 0.1% bovine serum albumin pH 8) After incubation for 30 min on shaking platform, Ni-NTA beads were washed twice with 1.4 ml of BB, followed by application of 50 μl of B2-AP in the final concentration of 50 nM. Binding was performed for 30 min on shaking platform, and then tubes were centrifuged and washed one time with 1.4 ml of BB. Amount of precipitated AP was measured colorimetrically after application of PNPP.
Inhibition in solution. Different amounts of B4ECv3 diluted in 50 μl of BB were pre-incubated with 50 μl of 5 nM B2EC-AP reagent (protein fusion of Ephrin B2 ectodomain with placental alkaline phosphatase). After incubation for 1 h, unbound B2EC-AP was precipitated with 5,000 HEK293 cells expressing membrane-associated full-length EphB4 for 20 min. Binding reaction was stopped by dilution with 1.2 ml of BB, followed by centrifugation for 10 min. Supernatants were discarded and alkaline phosphatase activities associated with collected cells were measured by adding para-nitrophenyl phosphate (PNPP) substrate.
Cell based inhibition. B4ECv3 was serially diluted in 20 mM Tris-HCl, 0.15 M NaCl, 0.1% BSA, pH 8 and mixed with 5,000 HEK293 cells expressing membrane-associated full-length Ephrin B2. […]

[2] = target: T2, B4EC-NT (soluble EphB4 extracellular domain without epitope or purification tags) (human, UniProt P54760 16-539); assay: B2EC-AP binding and competition assays on conditioned media of stable cell lines
T2 construct: extracellular domain; also called EphB4ECnt; B4ECv3NT
T2 sequence (looked up): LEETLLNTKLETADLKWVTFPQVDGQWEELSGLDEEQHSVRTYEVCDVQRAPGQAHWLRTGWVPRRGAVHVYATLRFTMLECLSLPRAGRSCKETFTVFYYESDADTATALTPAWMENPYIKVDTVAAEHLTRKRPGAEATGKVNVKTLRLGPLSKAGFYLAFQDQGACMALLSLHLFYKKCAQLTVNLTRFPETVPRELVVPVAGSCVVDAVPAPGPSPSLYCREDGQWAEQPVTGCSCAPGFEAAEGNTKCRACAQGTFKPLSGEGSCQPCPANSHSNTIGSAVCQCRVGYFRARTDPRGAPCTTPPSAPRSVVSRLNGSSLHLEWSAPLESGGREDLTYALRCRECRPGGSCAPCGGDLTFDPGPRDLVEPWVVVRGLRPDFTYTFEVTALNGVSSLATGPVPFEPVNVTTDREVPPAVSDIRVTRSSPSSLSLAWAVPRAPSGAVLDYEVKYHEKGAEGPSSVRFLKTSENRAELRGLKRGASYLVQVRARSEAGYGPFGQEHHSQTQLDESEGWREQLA

[3] = target: T3, B4ECv3-FC (EphB4 extracellular domain fused to human IgG1 Fc) (human, UniProt P54760 16-539); assay: biochemical assays: Protein A-agarose and nitrocellulose binding of B2EC-AP; inhibition assays (FIGS. 6-7)
T3 construct: extracellular domain; also called B4EC-FC; not shown: Fc portion of human IgG1 (pIG vector)
T3 sequence (looked up): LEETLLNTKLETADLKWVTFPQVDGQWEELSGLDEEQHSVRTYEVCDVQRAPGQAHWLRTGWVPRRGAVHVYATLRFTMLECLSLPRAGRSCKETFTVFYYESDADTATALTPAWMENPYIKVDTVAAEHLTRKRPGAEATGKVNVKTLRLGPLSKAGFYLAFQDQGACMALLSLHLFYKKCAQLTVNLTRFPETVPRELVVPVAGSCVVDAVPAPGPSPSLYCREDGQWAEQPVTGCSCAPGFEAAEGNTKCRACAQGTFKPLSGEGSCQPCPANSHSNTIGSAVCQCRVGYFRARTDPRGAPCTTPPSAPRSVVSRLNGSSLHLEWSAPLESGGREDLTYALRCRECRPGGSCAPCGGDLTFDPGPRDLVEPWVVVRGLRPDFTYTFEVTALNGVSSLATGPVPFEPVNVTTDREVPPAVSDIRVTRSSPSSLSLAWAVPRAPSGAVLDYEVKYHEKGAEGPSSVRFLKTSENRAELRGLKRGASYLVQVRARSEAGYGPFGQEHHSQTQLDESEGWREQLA
Protocol: Protein A-agarose based assay. 10 μl of Protein A-agarose were incubated in Eppendorf tubes with 50 μl of indicated amount of B4EC-FC diluted in binding buffer BB (20 mM Tris-HCl, 0.15 M NaCl, 0.1% BSA pH 8). After incubation for 30 min on shaking platform, Protein AAagarose beads were washed twice with 1.4 ml of BB, followed by application of 50 μl of B2ECAP reagent at the final concentration of 50 nM. Binding was performed for 30 min on shaking platform, and then tubes were centrifuged and washed once with 1.4 ml of BB. Colorimetric reaction of precipitated AP was measured after application of PNPP (FIG. 6).
Nitrocellulose based assay. B4EC-FC was serially diluted in 20 mM Tris-HCl, 0.15 M NaCl, 50 μg/ml BSA, pH 8. 2 μl of each fraction were applied onto nitrocellulose strip and spots were dried out for 3 min. Nitrocellulose strip was blocked with 5% non-fat milk for 30 min, followed by incubation with 5 nM B2EC-AP reagent. After 45 min incubation for binding, nitrocellulose was washed twice with 20 mM Tris-HCl, 0.15 M NaCl, 50 μg/ml BSA, pH 8 and color was developed by application of alkaline phosphatase substrate Sigma Fast (Sigma).

[4] = target: T4, B4-GC (EphB4 globular domain + Cys-rich domain, C-terminal 6xHis) (human, UniProt P54760 16-326); assay: Ephrin B2-AP binding to B4 proteins immobilized on Ni resin or nitrocellulose membrane
T4 construct: Printed mature EphB4 part counts 311 residues, the text says 1-312; also called B4EC-GC
T4 sequence: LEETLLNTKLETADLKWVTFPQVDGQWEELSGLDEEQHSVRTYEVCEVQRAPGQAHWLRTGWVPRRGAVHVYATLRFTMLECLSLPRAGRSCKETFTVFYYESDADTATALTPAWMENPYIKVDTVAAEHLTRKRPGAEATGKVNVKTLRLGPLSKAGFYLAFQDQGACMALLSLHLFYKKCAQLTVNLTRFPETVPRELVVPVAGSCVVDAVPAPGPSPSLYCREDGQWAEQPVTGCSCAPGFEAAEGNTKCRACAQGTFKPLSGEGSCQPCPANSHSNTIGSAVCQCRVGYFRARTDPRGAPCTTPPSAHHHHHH
Protocol: (§1) To confirm ability of the purified recombinant proteins to bind Ephrin B2, they were tested in an in vitro binding assay. As expected, GC, GCF1 and GCF2, but not CF2 are binding the cognate ligand Ephrin B2 as confirmed by interaction between Ephrin B2—alkaline phosphatase (Ephrin B2-AP) fusion protein with the B4 proteins immobilized on Ni²⁺-resin or on nitrocellulose membrane (FIG. 17).
(§2) To test ligand binding properties of the proteins, 10 μl of Ni-NTA-Agarose (Qiagen) were incubated in microcentrifuge tubes with 10-500 ng sample of a B4-ECD protein diluted in 0.5 ml of binding buffer BB (20 mM Tris-HCl, 0.15 M NaCl, 0.1% bovine serum albumin, pH 8). After incubation for 30 min on shaking platform, Ni-NTA beads were washed twice with 1.4 ml of BB, followed by addition of B2-AP fusion protein at concentration of 50 nM. Binding was performed for 30 min on a shaking platform. Tubes were centrifuged and washed once with 1.4 ml of BB. Amount of precipitated AP was measured colorimetrically at 420 nm after application of p-nitrophenyl phosphate (PNPP) and incubation for 5-30 min.

[5] = target: T5, B4-CF2 (EphB4 extracellular domain with deleted globular domain: Cys-rich and two FNIII domains, V5 and 6xHis … (human, UniProt P54760 16-537)); assay: as above
T5 sequence: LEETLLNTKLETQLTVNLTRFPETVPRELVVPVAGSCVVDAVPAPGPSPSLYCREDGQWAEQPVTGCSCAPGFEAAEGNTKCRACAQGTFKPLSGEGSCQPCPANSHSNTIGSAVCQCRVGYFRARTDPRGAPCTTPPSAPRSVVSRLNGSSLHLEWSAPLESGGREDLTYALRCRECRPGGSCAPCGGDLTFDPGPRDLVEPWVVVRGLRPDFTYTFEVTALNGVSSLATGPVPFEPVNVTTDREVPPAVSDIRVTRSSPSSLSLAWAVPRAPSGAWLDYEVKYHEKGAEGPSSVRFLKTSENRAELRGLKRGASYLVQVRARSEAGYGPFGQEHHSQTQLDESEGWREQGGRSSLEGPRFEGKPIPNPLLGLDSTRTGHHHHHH
Protocol: as §1, §2

[6] = target: T6, B4-GCF2 (recombinant soluble EphB4 extracellular domain: globular, Cys-rich and two FNIII domains, C-terminal … (human, UniProt P54760 16-537)); assay: as above
T6 construct: Expressed in HEK293T, glycosylated
T6 sequence: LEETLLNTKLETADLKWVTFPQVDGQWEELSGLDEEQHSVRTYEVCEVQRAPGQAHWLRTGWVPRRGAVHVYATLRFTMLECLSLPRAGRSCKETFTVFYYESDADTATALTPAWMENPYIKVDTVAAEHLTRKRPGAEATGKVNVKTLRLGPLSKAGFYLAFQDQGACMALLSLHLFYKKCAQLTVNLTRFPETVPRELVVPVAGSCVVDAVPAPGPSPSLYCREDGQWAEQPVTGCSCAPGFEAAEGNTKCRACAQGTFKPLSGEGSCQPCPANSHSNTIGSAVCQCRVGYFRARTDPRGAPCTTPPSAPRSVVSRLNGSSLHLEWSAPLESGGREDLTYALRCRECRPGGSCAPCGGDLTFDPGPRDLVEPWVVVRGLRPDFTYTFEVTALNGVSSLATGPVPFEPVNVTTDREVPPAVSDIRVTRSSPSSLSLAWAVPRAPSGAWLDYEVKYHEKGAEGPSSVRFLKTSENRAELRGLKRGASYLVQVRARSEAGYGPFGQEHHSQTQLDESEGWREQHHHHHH
Protocol: as §1, §2

[7] = target: T7, Mouse EphB4/Fc (R&D Systems) (mouse, UniProt P54761 16-539, limits assumed); assay: immunofluorescence on frozen KS biopsy sections, 5 ug/ml EphB4/Fc
T7 construct: Bought reagent; also called EphB4/Fc fusion protein; not shown: Fc part, detected with anti-human Fc/IgG-FITC
T7 sequence (looked up): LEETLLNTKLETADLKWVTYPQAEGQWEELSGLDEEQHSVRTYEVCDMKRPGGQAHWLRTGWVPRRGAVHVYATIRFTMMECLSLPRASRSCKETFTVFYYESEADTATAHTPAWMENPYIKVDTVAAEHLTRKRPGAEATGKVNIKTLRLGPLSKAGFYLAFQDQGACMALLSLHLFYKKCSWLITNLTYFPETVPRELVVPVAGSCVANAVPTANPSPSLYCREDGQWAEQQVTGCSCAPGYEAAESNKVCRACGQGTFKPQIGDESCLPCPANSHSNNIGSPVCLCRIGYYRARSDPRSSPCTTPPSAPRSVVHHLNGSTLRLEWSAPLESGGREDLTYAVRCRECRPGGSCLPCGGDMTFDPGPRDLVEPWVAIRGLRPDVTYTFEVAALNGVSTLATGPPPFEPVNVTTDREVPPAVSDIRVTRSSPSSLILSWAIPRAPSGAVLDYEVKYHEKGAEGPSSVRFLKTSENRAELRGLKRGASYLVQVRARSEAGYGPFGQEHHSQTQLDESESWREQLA
Protocol: Immunofluorescence detection of EphrinB2 with EPHB4-Fc was done as follows. Frozen sections fixed in 4% paraformaldehyde and blocked with 20% FBS were incubated with 5 μg/ml EphB4/Fc (R&D Systems) for 1 h at RT. Sections were then incubated with 10 μg/ml rabbit anti-human IgG-FITC in PBS (Jackson ImmunoResearch Laboratories West Grove, Pa.) at RT for 1 hour. Nuclei were counterstained with DAPI and sections mounted as above. Human Fc (Jackson ImmunoResearch) was used as the negative control.

B1: Ephrin B2-alkaline phosphatase (Ephrin B2-AP) fusion protein: Ephrin B2 ectodomain fused with placental alkaline phosphatase (ligand, human, UniProt P52799 28-229, looked up)
chain: IVLEPIYWNSSNSKFLPGQGLVLYPQIGDKLDIICPKVDSKTVGQYEYYKVYMVDKDQADRCTIKKENTPLLNCAKPDQDIKFTIKFQEFSPNLWGLEFQKNKDYYIISTSNGSLEGLDNQEGGVCQTRAMKILMKVGQDASSAGSTRNKDPTRRPELEAGTNGRSSTTSPFVKPNPGSSTDGNSAGHSGNNILGSEVALFA
notes: extracellular domain; Secreted reagent; also called B2EC-AP; B2ECAP; not shown: placental alkaline phosphatase of vector pAPTag2 (GenHunter)
- binding result [1]: binds
- binding result [2]: binds
- binding result [3]: binds
- binding result [4]: binds
- binding result [5]: no binding (tested: 50 nM B2-AP; 10-500 ng B4-ECD protein)
- binding result [6]: binds

B2: ephrin B2 on tumor cells of human Kaposi's sarcoma biopsy sections (ligand, UniProt P52799 28-333, looked up)
chain: IVLEPIYWNSSNSKFLPGQGLVLYPQIGDKLDIICPKVDSKTVGQYEYYKVYMVDKDQADRCTIKKENTPLLNCAKPDQDIKFTIKFQEFSPNLWGLEFQKNKDYYIISTSNGSLEGLDNQEGGVCQTRAMKILMKVGQDASSAGSTRNKDPTRRPELEAGTNGRSSTTSPFVKPNPGSSTDGNSAGHSGNNILGSEVALFAGIASGCIIFIVIIITLVVLLLKYRRRHRKHSPQHTTTLSLSTLATPKRSGNNNGSEPSDIIIPLRTADSVFCPHYEKVSGDYGHPVYIVQEMPPQSPANIYYKV
notes: whole, on cells
- binding result [7]: binds
